One protein from publication PMC7261184, “Human REXO2 controls short mitochondrial RNAs generated by mtRNA processing and decay machinery to prevent accumulation of double-stranded RNA” (Nucleic Acids Research, 2020) can be followed below.

A word on the stoichiometry N: it is the number of molecules, sites or subunits per partner or assembly.

This data set deals with the molecule itself. Kind of data set: SEC-MALS; gel filtration coupled with multi-angle light scattering. In general terms: Size exclusion chromatography separates by hydrodynamic size, large species first.

B1: REXO2, N-terminal-truncated (Δ28aa), wild type (enzyme, human, UniProt Q9Y3B8 29-237, looked up)
chain: GGAAMAAGESMAQRMVWVDLEMTGLDIEKDQIIEMACLITDSDLNILAEGPNLIIKQPDELLDSMSDWCKEHHGKSGLTKAVKESTITLQQAEYEFLSFVRQQTPPGLCPLAGNSVHEDKKFLDKYMPQFMKHLHYRIIDVSTVKELCRRWYPEEYEFAPKKAASHRALDDISESIKELQFYRNNIFKKKIDEKKRKIIENGENEKTVS
notes: human REXO2 (oligoribonuclease, mitochondrial), lacking the N-terminal 28 residues (Δ28aa); Crystallised with an RNA oligonucleotide and Ca2+; also called WT; wild-type REXO2; not shown: 6x His-SUMO, N-terminal, cleaved
With B1, the “stoichiometry N” value turned out to be 2.
